We go through 8 molecules from patent US20250186541A1, “DLL3 TARGETING PEPTIDES AND CONSTRUCTS THEREOF” (MARIANA ONCOLOGY INC., priority 2023, published 2025).

Bridge positions count the residues as written; N and C are the ends. Square brackets hold non-standard residues; d marks the D form.

The target in one assay is T1, human DLL3 (Homo sapiens, UniProt Q9NYJ7).
T1 construct: biotin (biotinylated)
T1 sequence (Q9NYJ7 27-618): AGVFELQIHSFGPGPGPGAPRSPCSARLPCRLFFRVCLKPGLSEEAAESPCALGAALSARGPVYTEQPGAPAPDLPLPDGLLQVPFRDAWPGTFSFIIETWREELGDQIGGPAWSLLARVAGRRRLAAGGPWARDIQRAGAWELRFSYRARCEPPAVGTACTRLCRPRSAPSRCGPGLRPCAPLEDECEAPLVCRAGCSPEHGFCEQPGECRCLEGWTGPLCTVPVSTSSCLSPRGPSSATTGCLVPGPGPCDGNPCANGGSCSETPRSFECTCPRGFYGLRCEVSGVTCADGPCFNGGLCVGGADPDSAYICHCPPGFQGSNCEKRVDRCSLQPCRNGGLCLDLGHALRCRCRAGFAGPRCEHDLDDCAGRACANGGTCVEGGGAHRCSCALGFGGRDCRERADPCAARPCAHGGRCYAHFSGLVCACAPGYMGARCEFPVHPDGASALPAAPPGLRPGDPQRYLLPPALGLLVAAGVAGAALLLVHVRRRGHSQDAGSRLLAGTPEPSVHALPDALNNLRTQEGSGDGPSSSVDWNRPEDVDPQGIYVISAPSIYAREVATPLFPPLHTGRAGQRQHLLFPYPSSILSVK
Description: Affinity determination by Surface Plasmon Resonance (SPR), Biacore, 1:1 binding model. The following applies: biotinylated human DLL3 on streptavidin chip, 25° C.; NB = nonbinding. An outline of the steps:
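SPR with biotinylated human DLL3 captured on a streptavidin chip, with a reference surface subtracted. Samples were injected at several concentrations at 100 μL/min in phosphate buffer with 137 mM NaCl, 2.7 mM KCl, 0.05% P20 and 2% DMSO. Kinetic and affinity constants came from a 1:1 binding fit.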

For the next assay, the target named is T2, Biotinylated human DLL3 (human, UniProt Q9NYJ7 27-492, biotinylated (site not stated)).
T2 construct: also called Delta-like ligand 3; Delta Like Canonical Notch Ligand 3
T2 sequence (looked up): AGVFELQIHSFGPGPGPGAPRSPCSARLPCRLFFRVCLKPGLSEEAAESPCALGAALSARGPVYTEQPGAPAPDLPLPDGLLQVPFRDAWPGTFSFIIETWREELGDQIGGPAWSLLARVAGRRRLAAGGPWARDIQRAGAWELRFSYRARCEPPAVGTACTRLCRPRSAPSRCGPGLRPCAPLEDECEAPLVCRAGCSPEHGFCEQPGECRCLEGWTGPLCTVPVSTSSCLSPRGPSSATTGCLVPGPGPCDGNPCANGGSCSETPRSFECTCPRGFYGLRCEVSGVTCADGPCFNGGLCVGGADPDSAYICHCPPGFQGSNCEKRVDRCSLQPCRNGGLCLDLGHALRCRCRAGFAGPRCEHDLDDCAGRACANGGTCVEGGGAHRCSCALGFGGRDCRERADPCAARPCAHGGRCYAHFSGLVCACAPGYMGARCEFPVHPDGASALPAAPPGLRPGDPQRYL
Description: SPR, biotin-hDLL3 on SA chip.

`CC(=O)N[C@@H](CO)C(=O)N[C@@](C)(CC(=O)O)C(=O)N[C@H]1CCCC[C@@H](C(=O)N2CCC[C@@]2(C)C(=O)N[C@@H](Cc2ccccc2)C(=O)N[C@@H](CC(=O)O)C(N)=O)NC(=O)[C@H](CC(N)=O)NC(=O)[C@H](Cc2ccc3ccccc3c2)NC(=O)[C@H](Cc2ccc(CNC(=O)CN3CCN(CC(=O)O)CCN(CC(=O)O)CCN(CC(=O)O)CC3)cc2)NC(=O)[C@H](CC(C)(C)C)NC(=O)[C@H](Cc2cccc3ccccc23)NC1=O` [compound 213, Ac-S-(aMe-Asp)-AllyG(4)*-(1Nal)-(t-Bu-Ala)-[PAF(DOTA)]-(2Nal)-N-AllyG(4)*-(aMe-P)-F-D-CONH2] displayed an equilibrium dissociation constant (Kd) at human DLL3 of 0.419 nM.

“Ac-(Chg)-S-D-C(3)-(1Nal)-(THPG)-Q-W-N-C(3)-(aMe-P)-F-D-D-Lys(DOTA)-CONH2 [compound 128]”: the “SPR KD (nM)” value at human DLL3 is “slow kon”.

Ac-[dA]SDCWLQWNCPFD-NH2 (disulfide 4-10) [Cpd #8] gave a dissociation constant Kd in the assay with Biotinylated human DLL3 of 8.5 nM.

B1: Cpd #19 (peptide)
peptide: Ac-ASDCWLQWNCPFD-NH2
modifications: disulfide 4-10
SMILES: CC(=O)N[C@@H](C)C(=O)N[C@@H](CO)C(=O)N[C@@H](CC(=O)O)C(=O)N[C@H]1CSSC[C@@H](C(=O)N2CCC[C@H]2C(=O)N[C@@H](Cc2ccccc2)C(=O)N[C@@H](CC(=O)O)C(N)=O)NC(=O)[C@H](CC(N)=O)NC(=O)[C@H](Cc2c[nH]c3ccccc23)NC(=O)[C@H](CCC(N)=O)NC(=O)[C@H](CC(C)C)NC(=O)[C@H](Cc2c[nH]c3ccccc23)NC1=O
In the assay with Biotinylated human DLL3, B1 yielded a Kd of 21 nM.

B2: Cpd #9 (peptide)
peptide: Ac-M[dA]DCWLQWNCPFD-NH2
modifications: disulfide 4-10
SMILES: CSCC[C@H](NC(C)=O)C(=O)N[C@H](C)C(=O)N[C@@H](CC(=O)O)C(=O)N[C@H]1CSSC[C@@H](C(=O)N2CCC[C@H]2C(=O)N[C@@H](Cc2ccccc2)C(=O)N[C@@H](CC(=O)O)C(N)=O)NC(=O)[C@H](CC(N)=O)NC(=O)[C@H](Cc2c[nH]c3ccccc23)NC(=O)[C@H](CCC(N)=O)NC(=O)[C@H](CC(C)C)NC(=O)[C@H](Cc2c[nH]c3ccccc23)NC1=O
B2: binding in the assay with Biotinylated human DLL3 was put at a Kd of 35.1 nM.

B3: Cpd #21 (peptide)
peptide: Ac-MSACWLQWNCPFD-NH2
modifications: disulfide 4-10
SMILES: CSCC[C@H](NC(C)=O)C(=O)N[C@@H](CO)C(=O)N[C@@H](C)C(=O)N[C@H]1CSSC[C@@H](C(=O)N2CCC[C@H]2C(=O)N[C@@H](Cc2ccccc2)C(=O)N[C@@H](CC(=O)O)C(N)=O)NC(=O)[C@H](CC(N)=O)NC(=O)[C@H](Cc2c[nH]c3ccccc23)NC(=O)[C@H](CCC(N)=O)NC(=O)[C@H](CC(C)C)NC(=O)[C@H](Cc2c[nH]c3ccccc23)NC1=O
With B3, in the assay with Biotinylated human DLL3, binding was put at a Kd of 80 nM.

B4: Cpd #10 (peptide)
peptide: Ac-MS[dA]CWLQWNCPFD-NH2
modifications: disulfide 4-10
SMILES: CSCC[C@H](NC(C)=O)C(=O)N[C@@H](CO)C(=O)N[C@H](C)C(=O)N[C@H]1CSSC[C@@H](C(=O)N2CCC[C@H]2C(=O)N[C@@H](Cc2ccccc2)C(=O)N[C@@H](CC(=O)O)C(N)=O)NC(=O)[C@H](CC(N)=O)NC(=O)[C@H](Cc2c[nH]c3ccccc23)NC(=O)[C@H](CCC(N)=O)NC(=O)[C@H](CC(C)C)NC(=O)[C@H](Cc2c[nH]c3ccccc23)NC1=O
With B4, the Kd with Biotinylated human DLL3 worked out at 116 nM.

B5: Cpd #12 (peptide)
peptide: Ac-MSDCW[dA]QWNCPFD-NH2
modifications: disulfide 4-10
SMILES: CSCC[C@H](NC(C)=O)C(=O)N[C@@H](CO)C(=O)N[C@@H](CC(=O)O)C(=O)N[C@H]1CSSC[C@@H](C(=O)N2CCC[C@H]2C(=O)N[C@@H](Cc2ccccc2)C(=O)N[C@@H](CC(=O)O)C(N)=O)NC(=O)[C@H](CC(N)=O)NC(=O)[C@H](Cc2c[nH]c3ccccc23)NC(=O)[C@H](CCC(N)=O)NC(=O)[C@@H](C)NC(=O)[C@H](Cc2c[nH]c3ccccc23)NC1=O
B5 registered a Kd with Biotinylated human DLL3 of 63 nM.
